Results from patent US7470669B2, “Isolated polypeptide comprising a leptin fragment” (Serono Genetics Institute, S.A., priority 1999, dated 2008).

Columns and labels:
ob/ob mice = assay: Food intake of ob/ob mice under daily subcutaneous injections; type: in vivo, mouse; details: daily subcutaneous injections of 25 μg over a 12 day period
Protocol: A synthetic peptide with a sequence identical to that of mouse leptin between residues 117-138 was obtained and found to stimulate the oleate-induced binding of ^125I-LDL in primary cultures of rat hepatocytes (FIG. 11B, insert). Daily subcutaneous injections of 25 μg of this synthetic leptin peptide to ob/ob mice had no effect on the food intake over a 12 day period (7.6±0.4 g/day in ob/ob receiving saline and 6.7±0.3 g/day in ob/ob receiving peptide; n=4, NS). Daily injections of 25 μg of mouse leptin caused a reduction of food intake to 4.7±0.5 g/day (n=3; p<0.003 versus controls).

LSR = LSR activity (oleate-induced 125I-LDL binding, uptake, degradation) in primary cultures of rat hepatocytes; type: cell-based
Protocol: FIGS. 6A, 6B, and 6C show the effect of leptin on ^125I-LDL and ^125I-chylomicron binding to LSR in primary cultures of rat hepatocytes. For FIG. 6A, primary cultures of rat hepatocytes (48 hours after plating) were incubated at 37° C. for 30 min in the absence (□) or presence (▪) of 50 ng/mL leptin in Buffer A, followed by a 20 min incubation at 37° C. with 0.5 mM oleate. The cells were then washed with ice-cold PBS, precooled for 10 min, and then incubated for 1 h at 4° C. with increasing concentrations of ^125I-LDL in Buffer A. Cells were washed, were lysed in 0.1 N NaOH and were counted for radioactivity. Results are shown as the mean of duplicate determinations. […] The media was recovered and the radioactivity was measured. […] The amount of ^125I-chylomicrons bound was determined, and results are shown as means±SD of triplicate (irrelevant) or quadruplicate (anti-LSR) determinations.
FIGS. 7A and 7B show a comparison of the effect of human and mouse leptin on LSR activity in rat hepatocytes and on postprandial increase in plasma TG in db^Pas/db^Pas mice. […] The media were removed and were analyzed for TCA-soluble degradation products. […] The data represent the difference in TG concentrations measured at t=0 and the average of the concentrations at 3 and 4 hours. […]

B1: mouse leptin: recombinant mouse leptin, laboratory-prepared or commercial (Sigma, Calbiochem) (protein, UniProt P41160 22-167, looked up)
Leptin: VPIQKVQDDTKTLIKTIVTRINDISHTQSVSAKQRVTGLDFIPGLHPILSLSKMDQTLAVYQQVLTSLPSQNVLQIANDLENLRDLLHLLAFSKSCSLPQTSGLQKPESLDGVLEASLYSTEVVALSRLQGSLQDILQQLDVSPEC
food intake (ob/ob mice): 4.7 ± 0.5 g/day | stimulation of LSR-mediated LDL degradation in primary cultures of rat hepatocytes (LSR; 10 ng/mL recombinant leptin): more efficient than human leptin | oleate-induced 125I-LDL binding to the cell surface (LSR; rat hepatocytes, 30 min preincubation with 20 ng/mL at 37° C., binding at 4° C.): increased
